Ten molecules from paper PMC2926618 can be followed below.

For data set [1], the target named is T1, GST-Kaiso zinc fingers (Homo sapiens, UniProt Q86T24 454-638).
T1 sequence: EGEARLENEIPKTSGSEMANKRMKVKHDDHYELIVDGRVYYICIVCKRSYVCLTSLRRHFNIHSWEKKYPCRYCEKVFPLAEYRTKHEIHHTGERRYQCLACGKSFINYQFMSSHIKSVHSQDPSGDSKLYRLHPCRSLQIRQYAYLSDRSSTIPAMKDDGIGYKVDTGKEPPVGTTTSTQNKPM
Put plainly: EMSA. For orientation: A gel shift assay detects complexes by their altered migration in electrophoresis.

The target in data set [2] is T2, GST-ZBTB38 zinc fingers (Homo sapiens, UniProt Q8NAP3 418-612).
T2 sequence: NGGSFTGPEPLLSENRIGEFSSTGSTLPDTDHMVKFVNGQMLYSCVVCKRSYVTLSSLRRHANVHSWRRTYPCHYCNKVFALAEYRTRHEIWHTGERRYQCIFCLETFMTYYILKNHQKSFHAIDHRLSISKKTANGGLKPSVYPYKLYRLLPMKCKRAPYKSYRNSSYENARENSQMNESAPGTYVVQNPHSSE
Put plainly: EMSA.

The target of data set [3] is T3, GST-ZBTB4 zinc fingers (Homo sapiens, UniProt Q9P1Z0 268-460).
T3 sequence: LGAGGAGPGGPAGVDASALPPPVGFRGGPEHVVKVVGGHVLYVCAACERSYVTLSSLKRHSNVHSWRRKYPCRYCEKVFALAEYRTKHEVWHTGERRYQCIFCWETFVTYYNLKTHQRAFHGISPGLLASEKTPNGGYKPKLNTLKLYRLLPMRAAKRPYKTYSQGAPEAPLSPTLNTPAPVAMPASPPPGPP
Put plainly: EMSA.

Data set [4] has as its target T4, GST-ZBTB4 T376A (Homo sapiens, UniProt Q9P1Z0 268-460, T376A).
T4 sequence: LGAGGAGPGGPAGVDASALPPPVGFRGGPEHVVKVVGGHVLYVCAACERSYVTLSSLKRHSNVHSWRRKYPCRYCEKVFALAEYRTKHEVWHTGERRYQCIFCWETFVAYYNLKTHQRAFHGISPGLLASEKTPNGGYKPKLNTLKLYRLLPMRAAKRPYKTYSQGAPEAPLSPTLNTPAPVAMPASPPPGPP
Put plainly: EMSA.

Data set [5] addresses T5, GST-Kaiso E535A (Homo sapiens, UniProt Q86T24 454-638, E535A).
T5 sequence: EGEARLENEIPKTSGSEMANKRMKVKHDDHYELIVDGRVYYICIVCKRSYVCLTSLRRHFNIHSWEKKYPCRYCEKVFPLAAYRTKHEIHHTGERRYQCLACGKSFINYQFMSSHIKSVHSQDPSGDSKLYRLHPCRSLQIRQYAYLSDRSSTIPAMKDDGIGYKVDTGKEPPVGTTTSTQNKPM
Put plainly: EMSA.

The target in data set [6] is T6, GST-ZBTB4 Y351A (Homo sapiens, UniProt Q9P1Z0 268-460, Y351A).
T6 sequence: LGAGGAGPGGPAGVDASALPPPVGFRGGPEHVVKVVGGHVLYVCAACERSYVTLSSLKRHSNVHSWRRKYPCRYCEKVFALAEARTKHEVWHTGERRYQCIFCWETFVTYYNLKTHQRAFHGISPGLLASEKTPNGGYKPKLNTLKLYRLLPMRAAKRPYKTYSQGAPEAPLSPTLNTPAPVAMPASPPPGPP
Put plainly: EMSA.

The target in data set [7] is T7, GST-ZBTB4 L348A (Homo sapiens, UniProt Q9P1Z0 268-460, L348A).
T7 sequence: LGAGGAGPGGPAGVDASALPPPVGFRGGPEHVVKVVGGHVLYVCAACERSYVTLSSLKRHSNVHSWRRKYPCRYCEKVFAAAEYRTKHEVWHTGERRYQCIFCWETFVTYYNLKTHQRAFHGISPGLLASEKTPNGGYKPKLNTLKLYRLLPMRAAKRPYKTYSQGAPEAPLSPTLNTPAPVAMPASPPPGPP
Put plainly: EMSA.

In data set [8] the target is T8, GST-ZBTB4 S323A (Homo sapiens, UniProt Q9P1Z0 268-460, S323A).
T8 sequence: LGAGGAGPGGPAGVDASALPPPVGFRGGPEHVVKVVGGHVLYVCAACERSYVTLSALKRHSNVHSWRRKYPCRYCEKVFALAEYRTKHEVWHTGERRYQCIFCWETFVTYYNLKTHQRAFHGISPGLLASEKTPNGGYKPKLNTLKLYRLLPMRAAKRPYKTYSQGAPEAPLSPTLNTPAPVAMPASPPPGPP
Put plainly: EMSA.

The target of data set [9] is T9, GST-ZBTB4 K354A (Homo sapiens, UniProt Q9P1Z0 268-460, K354A).
T9 sequence: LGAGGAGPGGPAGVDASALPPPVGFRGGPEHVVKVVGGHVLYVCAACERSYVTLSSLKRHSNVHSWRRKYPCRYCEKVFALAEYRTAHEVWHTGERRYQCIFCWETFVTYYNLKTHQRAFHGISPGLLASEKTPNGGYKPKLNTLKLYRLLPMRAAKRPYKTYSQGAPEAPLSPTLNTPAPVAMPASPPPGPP
Put plainly: EMSA.

Data set [10] deals with T10, GST-ZBTB4 R326A (Homo sapiens, UniProt Q9P1Z0 268-460, R326A).
T10 sequence: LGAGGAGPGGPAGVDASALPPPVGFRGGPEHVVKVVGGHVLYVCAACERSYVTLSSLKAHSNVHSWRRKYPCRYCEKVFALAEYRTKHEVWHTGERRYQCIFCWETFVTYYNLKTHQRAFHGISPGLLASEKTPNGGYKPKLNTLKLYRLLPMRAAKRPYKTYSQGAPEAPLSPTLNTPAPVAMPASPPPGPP
Put plainly: EMSA.

In data set [11] the target is T3, GST-ZBTB4 zinc fingers. Put plainly: competition.
Data set [12] addresses T11, GST-ZBTB4 E350A (Homo sapiens, UniProt Q9P1Z0 268-460, E350A).
T11 sequence: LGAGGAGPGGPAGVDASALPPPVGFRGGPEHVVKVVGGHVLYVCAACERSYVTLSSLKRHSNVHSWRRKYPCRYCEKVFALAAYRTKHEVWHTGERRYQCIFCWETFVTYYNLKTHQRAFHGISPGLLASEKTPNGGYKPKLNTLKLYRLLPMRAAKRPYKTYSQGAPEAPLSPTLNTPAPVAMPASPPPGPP
Put plainly: EMSA.

Data set [13] concerns the target T3, GST-ZBTB4 zinc fingers. Put plainly: EMSA. This is another data set of the same source.
Data set [14] concerns the target T3, GST-ZBTB4 zinc fingers. Put plainly: competition. The source holds these as a separate data set.

B1: S15 (CCGCCATC) (dsDNA)
DNA 1: ACCCAACCGCCATCTGGGT
DNA 2: ACCCAGATGGCGGTTGGGT
Turning to B1, the results for the binding result in data set [1], in data set [2] and in data set [3] were “binds”, “no binding” and “binds”, respectively.

B2: S2 (CTGCCATC) (dsDNA)
DNA 1: ACCCACCTGCCATCTAGGT
DNA 2: ACCTAGATGGCAGGTGGGT
On to B2, for which the binding result in data set [1] was “binds”; in data set [2] it was “no binding”; in data set [3], “binds”.

B3: meZ4BS (CMGCCAT) (dsDNA)
DNA 1: GTAGAAGTTCCCGCCATCACTATTG
DNA 2: CAATAGTGATGGCGGGAACTTCTAC
modifications: 5mC at strand 1 C12 and strand 2 C13
With B3, the binding result in [4] is reported as “binds”; in data set [2] it was “binds”; in data set [5], “no binding”; in data set [6], “binds”; in data set [7], “binds”; in [8], “binds”. The binding result in [9] is on record as “binds”; in data set [10], “no binding”; in data set [11], “binds”.

B4: Z4BS (ZBS, CTGCCATC; = TG/AC) (dsDNA)
DNA 1: GTAGAAGTTCCTGCCATCACTATTG
DNA 2: CAATAGTGATGGCAGGAACTTCTAC
As to B4, the binding result in [4] was “binds”; in [5] it was “binds”; in [9], “binds”; in data set [10] it was “no binding”; in data set [12], “binds”; in data set [13] it was “binds”.

B5: meZ4BS hemimethylated, upper strand (dsDNA)
DNA 1: GTAGAAGTTCCCGCCATCACTATTG
DNA 2: CAATAGTGATGGCGGGAACTTCTAC
modifications: 5mC at strand 1 C12 only
Consider B5, for which the binding result in data set [14] is on record as “binds”.

B6: MS8 methylated (CCGCTAT) (dsDNA)
DNA 1: ACCCAAACCGCTATCCTT
DNA 2: AAGGATAGCGGTTTGGGT
modifications: 5mC at CpG, both strands (SssI)
Take B6: the binding result in [3] is listed as “binds”.

B7: Non-selected (dsDNA)
DNA 1: ACCAAGCAACACACCCCGT
DNA 2: ACGGGGTGTGTTGCTTGGT
B7: the binding result in [3] is recorded as “no binding”.

B8: MS20 unmethylated (ACGCTTG) (dsDNA)
DNA 1: AAGGCCAACGCTTGTGGT
DNA 2: ACCACAAGCGTTGGCCTT
Take B8: the binding result in data set [3] is given as “no binding”.

B9: MS20 methylated (ACGCTTG) (dsDNA)
DNA 1: AAGGCCAACGCTTGTGGT
DNA 2: ACCACAAGCGTTGGCCTT
modifications: 5mC at CpG, both strands (SssI)
Turning to B9, the binding result in data set [3] is listed as “binds”.

B10: TG/GC mismatch (dsDNA)
DNA 1: GTAGAAGTTCCTGCCATCACTATTG
DNA 2: CAATAGTGATGGCGGGAACTTCTAC
As for B10, the binding result in data set [12] was “binds”.
